Experimental data reported in patent US20260258376.

What was measured:
Experiment in all cases: cell_activity
[1] = system: ZF-off targeting TAR1615 (table row SEQ 1601) (synthetic); conditions: HLA-DR+ 4.50%; binding inferred from silencing
[2] = system: ZF-off targeting TAR1646 (table row SEQ 1547) (synthetic); conditions: HLA-DR+ 3.88%; binding inferred from silencing
[3] = system: ZF-off targeting TAR1604 (table row SEQ 1576) (synthetic); conditions: HLA-DR+ 12.84%; binding inferred from silencing
[4] = system: ZF-off targeting TAR1650 (table row SEQ 1549) (synthetic); conditions: HLA-DR+ 13.65%; binding inferred from silencing
[5] = system: ZF-off targeting TAR1608 (table row SEQ 1608) (synthetic); conditions: HLA-DR+ 12.05%; binding inferred from silencing
[6] = system: ZF-off targeting TAR1607 (table row SEQ 1538) (synthetic); conditions: HLA-DR+ 6.46%; binding inferred from silencing
[7] = system: ZF-off targeting TAR1654 (table row SEQ 1572) (synthetic); conditions: HLA-DR+ in primary human T cells, 2.64%; binding inferred from silencing
[8] = system: ZF-off targeting TAR1623 (table row SEQ 1605) (synthetic); conditions: HLA-DR+ 10.56%; binding inferred from silencing
[9] = system: ZF-off targeting TAR1616 (table row SEQ 1557) (synthetic); conditions: HLA-DR+ 5.76%; binding inferred from silencing
[10] = system: ZF-off targeting TAR186 (table row SEQ 1553) (synthetic); conditions: HLA-DR+ 7.53%; binding inferred from silencing
[11] = system: ZF-off targeting TAR1649 (second row, 10.70%) (synthetic); conditions: HLA-DR+ 10.70%; binding inferred from silencing
[12] = system: ZF-off targeting TAR1612 (table row SEQ 1599) (synthetic); conditions: HLA-DR+ 12.50%; binding inferred from silencing
[13] = system: ZF-off targeting TAR1648 (third row, 4.51%) (synthetic); conditions: HLA-DR+ 4.51%; binding inferred from silencing
[14] = system: ZF-off targeting TAR1655 (table row SEQ 1563) (synthetic); conditions: HLA-DR+ 15.20%; binding inferred from silencing

Sequence: GACGGGGGAACAGATGGTG (double strand) [TAR1615]
- activity (fraction of off-target control) [1]: 0.13

Sequence: GTGGTATCAAGGAGGAAGT (double strand) [TAR1646]
- activity (fraction of off-target control) [2]: 0.11

Sequence: GAGGCATCTGGGCGGAGGG (double strand) [TAR1604]
- activity (fraction of off-target control) [3]: 0.37

Sequence: GAATTTGGTGAAGACAGAA (double strand) [TAR1650]
- activity (fraction of off-target control) [4]: 0.39

Sequence: GGAGCTGCTGCCTGGCTGG (double strand) [TAR1608]
- activity (fraction of off-target control) [5]: 0.34

Sequence: AGGGCACGAGGAGGGGCTG (double strand) [TAR1607]
- activity (fraction of off-target control) [6]: 0.18

Sequence: GACAGGTAGGACCCAGCAG (double strand) [TAR1654]
- activity (fraction of off-target control) [7]: 0.08

Sequence: GGAGGGGGAGAAGTCAGAG (double strand) [TAR1623]
- activity (fraction of off-target control) [8]: 0.3

Sequence: GAACAGATGGTGGGAAGAG (double strand) [TAR1616]
- activity (fraction of off-target control) [9]: 0.16

Sequence: GAGGCTGTGTGCTTCTGAG (double strand) [TAR186]
- activity (fraction of off-target control) [10]: 0.22

Sequence: ACAGAAAGTCTGTTGGGGG (double strand) [TAR1649]
- activity (fraction of off-target control) [11]: 0.31

Sequence: GCAGCTGGGGAGAGCTGGC (double strand) [TAR1612]
- activity (fraction of off-target control) [12]: 0.36

Sequence: GAGAGCCTCTGCTGGGGAC (double strand) [TAR1648]
- activity (fraction of off-target control) [13]: 0.13

Sequence: TGGGTATGGAGTGGAGTCT (double strand) [TAR1655]
- activity (fraction of off-target control) [14]: 0.43
